Laboratory results taken from patent US20240043515A1 (Chugai, published 2024).

T1: hFcγRIIaH on Jurkat effector cells (human, UniProt P12318 34-317)
T1 sequence (looked up): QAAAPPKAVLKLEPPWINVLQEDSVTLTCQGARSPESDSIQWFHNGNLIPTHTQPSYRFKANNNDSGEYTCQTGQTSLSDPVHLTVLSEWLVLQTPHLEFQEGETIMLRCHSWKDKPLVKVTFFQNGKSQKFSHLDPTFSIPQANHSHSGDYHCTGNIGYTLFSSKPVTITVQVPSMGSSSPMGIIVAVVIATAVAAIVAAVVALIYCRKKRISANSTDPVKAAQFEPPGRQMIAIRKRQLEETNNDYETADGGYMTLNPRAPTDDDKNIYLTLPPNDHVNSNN

T2: human FcγRIIa H extracellular domain (human, UniProt P12318 34-217)
T2 construct: extracellular domain; also called hFcγR IIa H; FcγRIIa allotype H131
T2 sequence (looked up): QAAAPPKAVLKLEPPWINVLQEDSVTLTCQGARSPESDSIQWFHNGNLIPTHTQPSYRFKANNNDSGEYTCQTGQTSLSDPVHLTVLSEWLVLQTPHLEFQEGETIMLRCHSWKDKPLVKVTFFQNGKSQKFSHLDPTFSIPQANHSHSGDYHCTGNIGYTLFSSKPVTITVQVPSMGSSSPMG

T3: human FcγRIIa R extracellular domain (human, UniProt P12318 34-217)
T3 construct: extracellular domain; also called hFcγR IIa R; FcγRIIa allotype R131
T3 sequence (looked up): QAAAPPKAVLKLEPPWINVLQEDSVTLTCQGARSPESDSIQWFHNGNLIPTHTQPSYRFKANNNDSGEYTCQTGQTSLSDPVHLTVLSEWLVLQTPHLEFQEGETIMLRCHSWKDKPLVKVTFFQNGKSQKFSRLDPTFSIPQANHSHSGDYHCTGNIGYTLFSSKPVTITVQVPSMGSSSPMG

T4: human FcγRIIb extracellular domain (human, UniProt P31994 43-217)
T4 construct: extracellular domain; also called hFcγR IIb
T4 sequence (looked up): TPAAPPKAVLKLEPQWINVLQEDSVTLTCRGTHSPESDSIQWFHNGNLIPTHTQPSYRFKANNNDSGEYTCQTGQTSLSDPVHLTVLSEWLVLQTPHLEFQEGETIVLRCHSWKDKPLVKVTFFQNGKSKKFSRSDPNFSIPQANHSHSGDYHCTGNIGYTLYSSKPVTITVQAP


Legend:
[1] = target: hFcγRIIIaV on Jurkat effector cells (human, UniProt P08637 17-254); assay: cell-based or functional assay
Sequence of hFcγRIIIaV on Jurkat effector cells (P08637 17-254, form in doubt): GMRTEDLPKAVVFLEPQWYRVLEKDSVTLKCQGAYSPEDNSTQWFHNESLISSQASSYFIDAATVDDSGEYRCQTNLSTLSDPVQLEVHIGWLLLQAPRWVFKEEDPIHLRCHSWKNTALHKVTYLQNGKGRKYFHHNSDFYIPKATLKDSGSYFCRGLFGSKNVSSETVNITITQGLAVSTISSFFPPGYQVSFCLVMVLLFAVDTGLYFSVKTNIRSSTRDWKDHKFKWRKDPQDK

[2] = target: T1, hFcγRIIaH on Jurkat effector cells; assay: cell-based or functional assay
[3] = target: T5, human FcγRIa extracellular domain (human, UniProt P12314 16-292); assay: SPR; KD of G1d divided by KD of this antibody
T5 construct: extracellular domain; also called hFcγR Ia
T5 sequence (P12314 16-292): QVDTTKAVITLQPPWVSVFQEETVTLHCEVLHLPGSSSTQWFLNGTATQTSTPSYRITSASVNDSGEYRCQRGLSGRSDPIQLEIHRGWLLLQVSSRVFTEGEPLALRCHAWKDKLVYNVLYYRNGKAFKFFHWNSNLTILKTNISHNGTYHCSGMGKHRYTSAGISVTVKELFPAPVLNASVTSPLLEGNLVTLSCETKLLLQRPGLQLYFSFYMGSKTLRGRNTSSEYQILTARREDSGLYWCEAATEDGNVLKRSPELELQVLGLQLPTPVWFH

[4] = target: T2, human FcγRIIa H extracellular domain; assay: SPR; KD of G1d divided by KD of this antibody
[5] = target: T3, human FcγRIIa R extracellular domain; assay: SPR; KD of G1d divided by KD of this antibody
[6] = target: T4, human FcγRIIb extracellular domain; assay: SPR; KD of G1d divided by KD of this antibody
[7] = target: T6, human FcγRIIIa F extracellular domain (human, UniProt P08637 17-208); assay: SPR; KD of G1d divided by KD of this antibody
T6 construct: extracellular domain; also called hFcγR IIIa F; FcγRIIIa allotype F158
T6 sequence (P08637 17-208): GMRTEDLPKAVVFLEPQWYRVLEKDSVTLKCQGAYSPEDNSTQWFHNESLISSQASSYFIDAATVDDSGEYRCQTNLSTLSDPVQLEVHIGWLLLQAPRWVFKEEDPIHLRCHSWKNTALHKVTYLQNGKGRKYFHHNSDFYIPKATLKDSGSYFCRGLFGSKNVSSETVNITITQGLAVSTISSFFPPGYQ

[8] = target: T7, human FcγRIIIa V extracellular domain (human, UniProt P08637 17-208); assay: SPR; KD of G1d divided by KD of this antibody
T7 construct: extracellular domain; also called hFcγR IIIa V; FcγRIIIa allotype V158
T7 sequence (P08637 17-208 F176V): as the sequence (P08637 17-208) above, with F160V counted along it

[9] = target: T2, human FcγRIIa H extracellular domain; assay: SPR; KD for hFcγRIIb divided by KD for this FcγR
[10] = target: T3, human FcγRIIa R extracellular domain; assay: SPR; KD for hFcγRIIb divided by KD for this FcγR
[11] = target: T6, human FcγRIIIa F extracellular domain; assay: SPR; KD for hFcγRIIb divided by KD for this FcγR
[12] = target: T7, human FcγRIIIa V extracellular domain; assay: SPR; KD for hFcγRIIb divided by KD for this FcγR
[13] = target: T7, human FcγRIIIa V extracellular domain; assay: SPR (Biacore 8K+), antibody captured, FcγR as analyte, 25 C, 1:1 Langmuir model
Method: (§1) The extracellular domains of FcγRs were produced by the method described in WO2014104165. The interaction between the produced antibodies and human FcγRs was analyzed using Biacore 8K+ by the method below. For the running buffer, 50 mM Na-Phosphate, 150 mM NaCl, and 0.05% Tween20 (pH 7.4) was used, and measurement was performed at 25° C. The sensor chip used was a Series S SA chip (GE Healthcare) onto which CaptureSelect Human Fab-kappa Kinetics Biotin Conjugate (Thermo Fisher Scientific) was immobilized. An antibody of interest was captured onto this chip, and each FcγR diluted with the running buffer was allowed to interact with it. The chip was regenerated using 10 mM Glycine-HCl (pH 1.5), and repeatedly used to capture antibodies and perform measurement. The dissociation constants KD (mol/L) of each antibody for FcγRs were calculated using Biacore Insight Evaluation Software, with a steady state affinity model for the dissociation constant for FcγRIIb and a 1:1 Langmuir binding model for the dissociation constants for the other FcγRs (Table 2).

[14] = target: T4, human FcγRIIb extracellular domain; assay: SPR (Biacore 8K+), antibody captured, FcγR as analyte, 25 C, steady state affinity model
Method: as §1

Binder	EC50 of reporter gene induction (ADCC Reporter Bioassay, Hepa1-6/hEREG target cells) [1]	EC50 of reporter gene induction (ADCP Reporter Bioassay, Hepa1-6/hEREG target cells) [2]	Relative value to KD between G1d and hFcgRs [3]	Relative value to KD between G1d and hFcgRs [4]	Relative value to KD between G1d and hFcgRs [5]	Relative value to KD between G1d and hFcgRs [6]	Relative value to KD between G1d and hFcgRs [7]	Relative value to KD between G1d and hFcgRs [8]	A/I ratio (KD for FcγRIIb divided by KD for each FcγR) [9]	A/I ratio (KD for FcγRIIb divided by KD for each FcγR) [10]	A/I ratio (KD for FcγRIIb divided by KD for each FcγR) [11]	A/I ratio (KD for FcγRIIb divided by KD for each FcγR) [12]	Kd [13]	Kd [14]
EGL-ART8 (H240-Kn461/L73-k0//H240-H1443/L73-k0) (antibody, human IgG1, kappa, Kn461: L234F/L235Q/G236W/S239M/T250V/H268D/D270E/S298A/T307P/K326D/I332E + Y349C/T366W; H1443: G236A/T250V/D270E/S298A/T307P/K326D/I332E/K334E + D356C/T366S/L368A/Y407V) heavy 1: QDQLVQSGAEVKKPGASVKVSCKASGFNIKDTYIQWVRQAPGQGLEWMGRIDPLRKQTKYREKFEGRVTITADTSTNTAYMELSSLRSEDTAVYYCVRSGREFDYWGQGTLVTVSSASTKGPSVFPLAPSSKSTSGGTAALGCLVKDYFPEPVTVSWNSGALTSGVHTFPAVLQSSGLYSLSSVVTVPSSSLGTQTYICNVNHKPSNTKVDKKVEPKSCDKTHTCPPCPAPEFQWGPMVFLFPPKPKDVLMISRTPEVTCVVVDVSDEEPEVKFNWYVDGVEVHNAKTKPREEQYNATYRVVSVLPVLHQDWLNGKEYKCKVSNDALPAPEEKTISKAKGQPREPQVCTLPPSRDELTKNQVSLWCLVKGFYPSDIAVEWESNGQPENNYKTTPPVLDSDGSFFLYSKLTVDKSRWQQGNVFSCSVMHEALHNHYTQKSLSLSP heavy 2: QDQLVQSGAEVKKPGASVKVSCKASGFNIKDTYIQWVRQAPGQGLEWMGRIDPLRKQTKYREKFEGRVTITADTSTNTAYMELSSLRSEDTAVYYCVRSGREFDYWGQGTLVTVSSASTKGPSVFPLAPSSKSTSGGTAALGCLVKDYFPEPVTVSWNSGALTSGVHTFPAVLQSSGLYSLSSVVTVPSSSLGTQTYICNVNHKPSNTKVDKKVEPKSCDKTHTCPPCPAPELLAGPSVFLFPPKPKDVLMISRTPEVTCVVVDVSHEEPEVKFNWYVDGVEVHNAKTKPREEQYNATYRVVSVLPVLHQDWLNGKEYKCKVSNDALPAPEEETISKAKGQPREPQVYTLPPSRCELTKNQVSLSCAVKGFYPSDIAVEWESNGQPENNYKTTPPVLDSDGSFFLVSKLTVDKSRWQQGNVFSCSVMHEALHNHYTQKSLSLSP light: DIQMTQSPSSLSASVGDRVTITCRASQDIHKYIAWYQQKPGQAPRLLIQYTSTLQPGVPSRFSGSGSGTDYTFTISSLQPEDIATYYCLQYEQLRTFGGGTKVEIKRTVAAPSVFIFPPSDEQLKSGTASVVCLLNNFYPREAKVQWKVDNALQSGNSQESVTEQDSKDSTYSLSSTLTLSKADYEKHKVYACEVTHQGLSSPVTKSFNRGEC	1.07 ng/mL	17.1 ng/mL	3.2 times	15 times	13.2 times	2.8 times	1970 times	695 times	47.2 ratio	28.1 ratio	2350 ratio	6850 ratio	0.516 nM	–
EGL-afucosyl (H240-G1d/L73-k_glycomab) (antibody, afucosylated (fucose-deficient sugar chain) ; Afucosylated (fucose-deficient) N-glycan at Asn297 (EU) of each heavy chain; the letters cannot carry this., Same heavy chain as EGL-G1d, produced as a fucose-deficient antibody; also called afucosylated antibody) heavy: not shown light: DIQMTQSPSSLSASVGDRVTITCRASQDIHKYIAWYQQKPGQAPRLLIQYTSTLQPGVPSRFSGSGSGTDYTFTISSLQPEDIATYYCLQYEQLRTFGGGTKVEIKRTVAAPSVFIFPPSDEQLKSGTASVVCLLNNFYPREAKVQWKVDNALQSGNSQESVTEQDSKDSTYSLSSTLTLSKADYEKHKVYACEVTHQGLSSPVTKSFNRGEC	–	–	–	1.1 times	–	1.8 times	–	–	–	–	–	–	19 nM	5650 nM
EGL-GASDIE (H240-Kn037/L73-k0//H240-H1036/L73-k0) (antibody, human IgG1, kappa, G236A/S239D/I332E in both heavy chains; Kn037 with Y349C/T366W, H1036 with D356C/T366S/L368A/Y407V) heavy 1: QDQLVQSGAEVKKPGASVKVSCKASGFNIKDTYIQWVRQAPGQGLEWMGRIDPLRKQTKYREKFEGRVTITADTSTNTAYMELSSLRSEDTAVYYCVRSGREFDYWGQGTLVTVSSASTKGPSVFPLAPSSKSTSGGTAALGCLVKDYFPEPVTVSWNSGALTSGVHTFPAVLQSSGLYSLSSVVTVPSSSLGTQTYICNVNHKPSNTKVDKKVEPKSCDKTHTCPPCPAPELLAGPDVFLFPPKPKDTLMISRTPEVTCVVVDVSHEDPEVKFNWYVDGVEVHNAKTKPREEQYNSTYRVVSVLTVLHQDWLNGKEYKCKVSNKALPAPEEKTISKAKGQPREPQVCTLPPSRDELTKNQVSLWCLVKGFYPSDIAVEWESNGQPENNYKTTPPVLDSDGSFFLYSKLTVDKSRWQQGNVFSCSVMHEALHNHYTQKSLSLSP heavy 2: QDQLVQSGAEVKKPGASVKVSCKASGFNIKDTYIQWVRQAPGQGLEWMGRIDPLRKQTKYREKFEGRVTITADTSTNTAYMELSSLRSEDTAVYYCVRSGREFDYWGQGTLVTVSSASTKGPSVFPLAPSSKSTSGGTAALGCLVKDYFPEPVTVSWNSGALTSGVHTFPAVLQSSGLYSLSSVVTVPSSSLGTQTYICNVNHKPSNTKVDKKVEPKSCDKTHTCPPCPAPELLAGPDVFLFPPKPKDTLMISRTPEVTCVVVDVSHEDPEVKFNWYVDGVEVHNAKTKPREEQYNSTYRVVSVLTVLHQDWLNGKEYKCKVSNKALPAPEEKTISKAKGQPREPQVYTLPPSRCELTKNQVSLSCAVKGFYPSDIAVEWESNGQPENNYKTTPPVLDSDGSFFLVSKLTVDKSRWQQGNVFSCSVMHEALHNHYTQKSLSLSP light: DIQMTQSPSSLSASVGDRVTITCRASQDIHKYIAWYQQKPGQAPRLLIQYTSTLQPGVPSRFSGSGSGTDYTFTISSLQPEDIATYYCLQYEQLRTFGGGTKVEIKRTVAAPSVFIFPPSDEQLKSGTASVVCLLNNFYPREAKVQWKVDNALQSGNSQESVTEQDSKDSTYSLSSTLTLSKADYEKHKVYACEVTHQGLSSPVTKSFNRGEC	3.7 ng/mL	14.9 ng/mL	6.2 times	16.4 times	24.7 times	8 times	44.7 times	15.1 times	18.2 ratio	18.6 ratio	18.9 ratio	52.6 ratio	–	–
